The target of this assay is FZD7 class proteins. The assay can be described thus: ELISA of biotinylated Wnt binding to FZD CRD-Fc with or without peptide. On the technique in general: In an ELISA, binding on a coated surface is turned into a signal by an enzyme label.

1 molecule from patent US20190359653A1, “SELECTIVE PEPTIDE INHIBITORS OF FRIZZLED” (Genentech, Inc., priority 2016, published 2019) can be followed below.

B1: Biotinylated Wnt5a (ligand)
chain: IIGAQPLCSQLAGLSQGQKKLCHLYQDHMQYIGEGAKTGIKECQYQFRHRRWNCSTVDNTSVFGRVMQIGSRETAFTYAVSAAGVVNAMSRACREGELSTCGCSRAARPKDLPRDWLWGGCGDNIDYGYRFAKEFVDARERERIHAKGSYESARILMNLHNNEAGRRTVYNLADVACKCHGVSGSCSLKTCWLQLADFRKVGDALKEKYDSAAAMRLNSRGKLVQVNSRFNSPTTQDLVYIDPSPDYCVRNESTGSLGTQGRLCNKTSEGMDGCELMCCGRGYDQFKTVQTERCHCKFHWCCYVKCKKCTEIVDQFVCK
modifications: Biotinylated with the Pierce reagent cat no. 21338; the positions are not stated and the letters are unchanged. The lipid modification of Wnt (fatty acyl moiety) is not carried by the letters.
Take B1: the fold enhancement of binding by Fz7-21 or dFz7-21 fell in the range of 1.5 to 2 fold.
